The chains are these.
T1: IL23R_huFC (human, UniProt Q5VWK5 24-353)
T1 sequence (looked up): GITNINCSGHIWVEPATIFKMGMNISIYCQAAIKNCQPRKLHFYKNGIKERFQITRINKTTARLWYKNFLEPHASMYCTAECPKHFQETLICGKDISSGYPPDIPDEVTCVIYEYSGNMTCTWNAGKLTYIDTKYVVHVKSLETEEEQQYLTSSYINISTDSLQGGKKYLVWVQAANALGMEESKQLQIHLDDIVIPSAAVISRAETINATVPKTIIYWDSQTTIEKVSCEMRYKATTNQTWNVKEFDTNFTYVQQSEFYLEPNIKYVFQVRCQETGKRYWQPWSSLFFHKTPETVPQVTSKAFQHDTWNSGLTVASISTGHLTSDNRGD

T2: IL-23R on human cells (IL-23R-expressing DB cells; human NK cells) (human, UniProt Q5VWK5 24-629)
T2 sequence (looked up): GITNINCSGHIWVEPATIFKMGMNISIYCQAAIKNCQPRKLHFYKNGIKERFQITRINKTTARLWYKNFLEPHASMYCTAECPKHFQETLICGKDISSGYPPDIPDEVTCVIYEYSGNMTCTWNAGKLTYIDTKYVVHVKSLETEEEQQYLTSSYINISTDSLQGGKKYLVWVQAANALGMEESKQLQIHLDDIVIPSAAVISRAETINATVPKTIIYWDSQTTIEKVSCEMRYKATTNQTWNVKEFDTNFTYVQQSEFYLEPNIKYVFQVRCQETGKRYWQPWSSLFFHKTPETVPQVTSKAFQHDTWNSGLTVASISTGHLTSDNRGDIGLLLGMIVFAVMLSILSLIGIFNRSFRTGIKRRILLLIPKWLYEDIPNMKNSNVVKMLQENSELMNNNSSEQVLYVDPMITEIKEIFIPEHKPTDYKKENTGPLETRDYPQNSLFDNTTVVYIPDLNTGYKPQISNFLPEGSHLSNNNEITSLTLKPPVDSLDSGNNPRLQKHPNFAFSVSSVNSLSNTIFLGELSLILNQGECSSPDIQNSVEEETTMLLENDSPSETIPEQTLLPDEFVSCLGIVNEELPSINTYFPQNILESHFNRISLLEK

*1 amine or outer side, *2 acyl side, *3 side chain or, on linkers, in order; H or OH if unused. Bridges are numbered along the chain shown (N, C = ends). Primed or numbered codes have the meaning given here. Side-chain parts run from the residue outwards. [ ]: non-standard residue; d: D form. Phe(4-OMe) = 4-methoxy-L-phenylalanine (O-methyl-L-tyrosine), COc1ccc(C[C@H](N[*:1])C(=O)[*:2])cc1; Phe(4-OMe)(4) = O-methyl-L-tyrosine, COc1ccc(C[C@H](N[*:1])C(=O)[*:2])cc1; 2Nal = N[C@@H](Cc1ccc2ccccc2c1)C(=O)O; AEF = NCCOc1ccc(C[C@H](N)C(=O)O)cc1; pGlu = O=C1CC[C@@H](C(=O)O)N1; αMeL = CC(C)C[C@](C)(N)C(=O)O; αMeOrn = C[C@](N)(CCCN)C(=O)O; hLeu = CC(C)CC[C@H](N)C(=O)O; αMeK = C[C@](N)(CCCCN)C(=O)O; Orn = NCCC[C@H](N)C(=O)O; PEG2′ = not defined here; Abu = CC[C@H](N)C(=O)O; Dap = NC[C@H](N)C(=O)O; Aib = CC(C)(N)C(=O)O A value given as a limit tells only on which side of the number the result lay.

Results on 18 molecules are retold here after US20190300590A1 (PROTAGONIST THERAPEUTICS, published 2019).

What is called IC50 is the midpoint of a concentration-inhibition curve. Read a high IC50 as a need for much substance.

The first assay has as its target T1, IL23R_huFC. The experiment in a line: human ELISA vs IL-23. In general terms: In an ELISA, binding on a coated surface is turned into a signal by an enzyme label.
Ac-[Abu]QTWQC[Phe(4-OMe)][2Nal][Aib]K(Ac)NG-NH2 (thioether 1-6) [Ac-Cyclo-[[Abu]-QTWQC]-[Phe(4-OMe)]-[2-Nal]-[Aib]-[Lys(Ac)]-NG-NH2]: the IC50 lay in the range of 10 to 25 nM.
Ac-[Abu]QTWQC[AEF][2Nal][Aib]EK(Ac)G-NH2 (thioether 1-6) [Ac-Cyclo-[[Abu]-QTWQC]-[Phe[4-(2-aminoethoxy)]]-[2-Nal]-[Aib]-E-[Lys(Ac)]-G-NH2] gave an IC50 of 10 to 25 nM.
Ac-[Abu]QTWQC[AEF][2Nal][Aib]K(Ac)QG-NH2 (thioether 1-6) [Ac-Cyclo-[[Abu]-QTWQC]-[Phe[4-(2-aminoethoxy)]]-[2-Nal]-[Aib]-[Lys(Ac)]-QG-NH2] registered an IC50 of 10 to 25 nM.
XQTWQCFXXKNG (as bracketed in name; thioether cyclo) [Ac-Cyclo-[[Abu]-QTWQC]-[Phe[4-(2-aminoethoxy)]]-[2-Nal]-[Orn]-[Lys(Ac)]-NG-NH2] gave an IC50 of 10 to 25 nM.
XQTWQCFWXENG (as bracketed in name; thioether cyclo) [Ac-Cyclo-[[Abu]-QTWQC]-[Phe[4-(2-aminoethoxy)]]-W-[α-Me-Orn]-ENG-NH2]: the IC50 lay in the range of 10 to 25 nM.
The same measure, in the same setting: in the case of Ac-[Abu]NTWQC[Phe(4-OMe)(4)][2Nal][αMeK]K(Ac)NG-NH2 (thioether 1-6) [Ac-Cyclo-[[Abu]-NTWQC]-[Phe(4-OMe)]-[2-Nal][α-MeLys]-[Lys(Ac)]-NG-NH2] it was 10 to 25 nM; in that of Ac-[Abu]QTWQC[Phe(4-OMe)][2Nal][αMeK]ENG-NH2 (thioether 1-6) [Ac-Cyclo-[[Abu]-QTWQC]-[Phe(4-OMe)]-[2-Nal]-[α-MeLys]-ENG-NH2], 10 to 25 nM; in that of Ac-[Abu]QTWQC[AEF][2Nal][αMeK]RNG-NH2 (thioether 1-6) [Ac-Cyclo-[[Abu]-QTWQC]-[Phe[4-(2-aminoethoxy)]]-[2-Nal]-[α-MeLys]-RNG-NH2], 10 to 25 nM.
In turn, Ac-[Abu]QTWQC[AEF]W[Aib]ENG-NH2 (thioether 1-6) [Ac-Cyclo-[[Abu]-QTWQC]-[Phe[4-(2-aminoethoxy)]]-W-[Aib]-ENG-NH2] came in with a concentration for half-maximal inhibition (IC50) of 10 to 25 nM.
Regarding Ac-[Abu]QTWQC[AEF][2Nal][αMeK][Dap]([PEG2′-Ac])NG-NH2 (thioether 1-6) [Ac-Cyclo-[[Abu]-QTWQC]-[Phe[4-(2-aminoethoxy)]]-[2-Nal][α-MeLys]-[Dap(PEG2-Ac)]NG-NH2], the IC50 lay within 10 to 25 nM.
With Ac-[Abu]QTWQC[AEF][2Nal][αMeK][Dap](pGlu)NG-NH2 (thioether 1-6) [Ac-Cyclo-[[Abu]-QTWQC]-[Phe[4-(2-aminoethoxy)]]-[2-Nal]-[α-MeLys]-[Dap(pyroglutamic acid)]-NG-NH2], the IC50 was 10 to 25 nM.
As for Ac-[Abu]QTWQCYW[αMeL]ENG-NH2 (thioether 1-6) [Ac-Cyclo-[[Abu]-QTWQC]-YW-[α-MeLeu]-ENG-NH2], the 50% inhibitory concentration (IC50) was 10 to 25 nM.
Ac-[Abu]QTWQC[AEF]W[hLeu]ENG-NH2 (thioether 1-6) [Ac-Cyclo-[[Abu]-QTWQC]-[Phe[4-(2-aminoethoxy)]]-W-[hLeu]-ENG-NH2] yielded an IC50 of 10 to 25 nM.
Turning to Ac-[Abu]QTWQC[AEF]W[Aib]ENN-NH2 (thioether 1-6) [Ac-Cyclo-[[Abu]-QTWQC]-[Phe[4-(2-aminoethoxy)]]-W-[Aib]-ENN-NH2], the IC50 was in the range of 10 to 25 nM.
Regarding Ac-[Abu]QTWQC[AEF]W[αMeOrn]K(Ac)NG-NH2 (thioether 1-6) [Ac-Cyclo-[[Abu]-QTWQC]-[Phe[4-(2-aminoethoxy)]]-W-[α-Me-Orn]-[Lys(Ac)]-NG-NH2], the IC50 fell in the range of 10 to 25 nM.

Another assay concerns the target T2, IL-23R on human cells …. The experiment in a line: cell-based or functional assay.
In the case of Ac-[Abu]QTWQC[Phe(4-OMe)][2Nal][Aib]K(Ac)NG-NH2 (thioether 1-6) [Ac-Cyclo-[[Abu]-QTWQC]-[Phe(4-OMe)]-[2-Nal]-[Aib]-[Lys(Ac)]-NG-NH2], the “pStat3 HTRF IC50” value was below 10 nM.
Ac-[Abu]QTWQC[AEF][2Nal][Aib]EK(Ac)G-NH2 (thioether 1-6) [Ac-Cyclo-[[Abu]-QTWQC]-[Phe[4-(2-aminoethoxy)]]-[2-Nal]-[Aib]-E-[Lys(Ac)]-G-NH2]: the “pStat3 HTRF IC50” value was below 10 nM.
Still for that read-out and setting: under Ac-[Abu]QTWQC[AEF][2Nal][Aib]K(Ac)QG-NH2 (thioether 1-6) [Ac-Cyclo-[[Abu]-QTWQC]-[Phe[4-(2-aminoethoxy)]]-[2-Nal]-[Aib]-[Lys(Ac)]-QG-NH2] stands below 10 nM; under XQTWQCFWXENG (as bracketed in name; thioether cyclo) [Ac-Cyclo-[[Abu]-QTWQC]-[Phe[4-(2-aminoethoxy)]]-W-[α-Me-Orn]-ENG-NH2], below 10 nM.
With Ac-[Abu]NTWQC[Phe(4-OMe)(4)][2Nal][αMeK]K(Ac)NG-NH2 (thioether 1-6) [Ac-Cyclo-[[Abu]-NTWQC]-[Phe(4-OMe)]-[2-Nal][α-MeLys]-[Lys(Ac)]-NG-NH2], the “pStat3 HTRF IC50” value is below 10 nM.
As to Ac-[Abu]QTWQC[Phe(4-OMe)][2Nal][αMeK]ENG-NH2 (thioether 1-6) [Ac-Cyclo-[[Abu]-QTWQC]-[Phe(4-OMe)]-[2-Nal]-[α-MeLys]-ENG-NH2], the “pStat3 HTRF IC50” value was below 10 nM.
For the molecule Ac-[Abu]QTWQC[AEF][2Nal][αMeK]RNG-NH2 (thioether 1-6) [Ac-Cyclo-[[Abu]-QTWQC]-[Phe[4-(2-aminoethoxy)]]-[2-Nal]-[α-MeLys]-RNG-NH2], the “pStat3 HTRF IC50” value was below 10 nM.
For Ac-[Abu]QTWQC[AEF]W[Aib]ENG-NH2 (thioether 1-6) [Ac-Cyclo-[[Abu]-QTWQC]-[Phe[4-(2-aminoethoxy)]]-W-[Aib]-ENG-NH2], the “pStat3 HTRF IC50” value was below 10 nM.
With Ac-[Abu]QTWQC[AEF][2Nal][αMeK][Dap](pGlu)NG-NH2 (thioether 1-6) [Ac-Cyclo-[[Abu]-QTWQC]-[Phe[4-(2-aminoethoxy)]]-[2-Nal]-[α-MeLys]-[Dap(pyroglutamic acid)]-NG-NH2], the “pStat3 HTRF IC50” value is below 10 nM.
Turning to Ac-[Abu]QTWQCYW[αMeL]ENG-NH2 (thioether 1-6) [Ac-Cyclo-[[Abu]-QTWQC]-YW-[α-MeLeu]-ENG-NH2], the “pStat3 HTRF IC50” value is below 10 nM.
Take Ac-[Abu]QTWQC[AEF]W[hLeu]ENG-NH2 (thioether 1-6) [Ac-Cyclo-[[Abu]-QTWQC]-[Phe[4-(2-aminoethoxy)]]-W-[hLeu]-ENG-NH2]: the “pStat3 HTRF IC50” value was below 10 nM.
For Ac-[Abu]QTWQC[AEF]W[Aib]ENN-NH2 (thioether 1-6) [Ac-Cyclo-[[Abu]-QTWQC]-[Phe[4-(2-aminoethoxy)]]-W-[Aib]-ENN-NH2], the “pStat3 HTRF IC50” value is below 10 nM.

A further assay addresses Rat IL-23R_huFC (rat). The experiment in a line: rat ELISA vs IL-23.
As for Ac-[Abu]QTWQC[Phe(4-OMe)][2Nal][Aib]K(Ac)NG-NH2 (thioether 1-6) [Ac-Cyclo-[[Abu]-QTWQC]-[Phe(4-OMe)]-[2-Nal]-[Aib]-[Lys(Ac)]-NG-NH2], the IC50 is 25 to 100 nM.
In turn, Ac-[Abu]NTWQC[Phe(4-OMe)(4)][2Nal][αMeK]K(Ac)NG-NH2 (thioether 1-6) [Ac-Cyclo-[[Abu]-NTWQC]-[Phe(4-OMe)]-[2-Nal][α-MeLys]-[Lys(Ac)]-NG-NH2] registered a concentration for half-maximal inhibition (IC50) of 25 to 100 nM.
With Ac-[Abu]QTWQC[Phe(4-OMe)][2Nal][αMeK]ENG-NH2 (thioether 1-6) [Ac-Cyclo-[[Abu]-QTWQC]-[Phe(4-OMe)]-[2-Nal]-[α-MeLys]-ENG-NH2], the IC50 fell in the range of 25 to 100 nM.
Ac-[Abu]QTWQCYW[αMeL]ENG-NH2 (thioether 1-6) [Ac-Cyclo-[[Abu]-QTWQC]-YW-[α-MeLeu]-ENG-NH2] showed an IC50 of 25 to 100 nM.

In another assay the target is T1, IL23R_huFC. Description: human ELISA vs IL-23. The source holds these as a separate data set.
For the molecule XQTWQCFXXKNG (as bracketed in name; thioether cyclo) [Ac-Cyclo-[[Abu]-QTWQC]-[Phe(4-OMe)]-[2-Nal]-[Orn]-[Lys(Ac)]-NG-NH2], the half-maximal inhibitory concentration (IC50) was in the range of 100 to 1000 nM.
Ac-[Abu]STWQC[AEF][2Nal][αMeK]KNGGE-NH2 (thioether 1-6) [Ac-Cyclo-[[Abu]-STWQC]-[Phe[4-(2-aminoethoxy)]]-[2-Nal]-[α-MeLys]-KNGGE-NH2] had a 50% inhibitory concentration (IC50) of 100 to 1000 nM.
With Ac-[Abu]QTWQC[AEF]W[Orn][Dap]NG-NH2 (thioether 1-6) [Ac-Cyclo-[[Abu]-QTWQC]-[Phe[4-(2-aminoethoxy)]]-W-[Orn]-[Dap]-NG-NH2], the IC50 is 100 to 1000 nM.
